Residue numbers refer to the chain shown, from its start.
Legend:
Cynomolgus monkey CDCP1 = target: T1, Cynomolgus monkey CDCP1 (Macaca fascicularis, UniProt A0A2K5VLA8); assay: Octet BLI, Ab on Protein A sensor, recombinant CDCP1 analyte
T1 construct: recombinant ectodomain from CHO cells; construct not given; also called cyCDCP1; BBP468

[1] = target: T2, recombinant human CDCP1 ECD (AA30-667) with C-terminal His tag (human, UniProt Q9H5V8 30-667); assay: as above
T2 construct: range 30-667; also called FL-ECD; recombinant FL-ECD
Experimental: Affinity: The affinity of antibodies to various recombinant CDCP1 molecules was determined on an Octet Red (Pall, ForteBio) instrument. After loading reagents into a 96-well plate, the Octet Red with Protein A-conjugated biosensors was programmed as follows: 30 seconds for baseline #1; 120 seconds to immobilize the antibody; 30 seconds for baseline #2; 300 seconds for association of antibody to recombinant CDCP1; and 300-600 seconds for dissociation of recombinant CDCP1 from the antibody.

[2] = target: human CDCP1 endogenously expressed on cancer cell lines (human, UniProt Q9H5V8 30-836); assay: cell-based or functional assay
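For Kd in this document: antibody captured for 120 s on the sensor, followed by 300 s association with CDCP1 and a 300–600 s dissociation phase.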

B1: 01E2 (antibody, V domains shown)
VH: QVQLVESGGGVVQPGRSLRLSCAASGFTFSSYGMHWVRQAPGKGLEWVAVIWYAGSNKYYADSVKGRFTISRDNSKNTLYLQMNSLRAEDTAVYYCAGWDFDYWGQGTLVTVSS
VL: EIVLTQSPATLSLSPGERATLSCRASQTVPNYLAWYQQKPGQAPRLLIYDASNRATDIPARFSGSGSGTDFTLTISSLEPEDFAVYYCQQRANWPPITFGQGTRLEIK
Kd (Cynomolgus monkey CDCP1): > 500 nM
Kd [1]: 20 nM

B2: 41A9 (antibody, human IgG1, V domains shown)
VH: QVQLQQWGAGLLKPSETLSLTCAVYGGSFSDYYWSWIRQPPGKGLEWIGEINHSGSTNYNPSLKSRVTISVDTSKNQFSLKLSSVTAADTAVYYCARDYDVLTGHFYYYYGMDVWGQGTTVTVSS
VL: EIVLTQSPATLSLSPGERATLSCRASQSVRRYLAWYQQKPGQAPRLLIYDASNRATGIPARFSGSGSGTDFTLTISSLEPEDFAVYYCQQRNNWPLTFGGGTKLEIK
notes: also called 41A09; human antibody 41A9
Kd (Cynomolgus monkey CDCP1): 13 nM
Kd [1]: 6 nM

B3: 04G06 (antibody, V domains shown)
VH: QVQLVESGGGVVQPGRSLRLSCVVSGFTLSSYGMHWVRQAPGKGLEWVAVIWYDGSDKYYADSVKGRFTISRDNSKNTLYLQMNSLRAEDTAVYYCARDDWGFDYWGQGTLVTVSS
VL: DIQLTQSPSFLSASVGDRVTITCRASQDISNYLAWYQQKPGKAPKLLISASTLQSGVPSRFSGSGSGTEFILTISSLQPEDFATYYCQHLNSYPFGQGTKVEIK
notes: also called 4G6
Kd (Cynomolgus monkey CDCP1): 27 nM
Kd [1]: 4 nM

B4: 38E11-vcMMAE (other)
VH: EVQLLESGGGLVQPGGSLRLSCAASGFTFSNYAMNWVRQAPGKGLEWVSAISGGGGSTYYADSVKGRFTISRDNSKNTLYLQMNSLRAEDTAVYYCAKESITMVRGVMDYYGMDVWGQGTTVTVSS
VL: DIQLTQSPSFLSASVGDRVTITCRASQGISSYLAWYQQKPGKAPKLLIYAASTLQGGVPSRFSGSGSGTEFTLTISSLQPEDFATYYCQHLNRFPRTFGQGTKVEIK
modifications: maleimidocaproyl-valine-citrulline-p-aminobenzoyloxycarbonyl-MMAE on hinge region cysteine thiols, positions not given; DAR 3.9
EC50 of killing, Cal-12T NSCLC cells, CellTiter Glo, 96 hrs [2]: > 1 µg/mL
EC50 of killing, DU145 prostate cancer cells, CellTiter Glo, 96 hrs [2]: 1 µg/mL
EC50 of killing, H1650 NSCLC cells, CellTiter Glo, 96 hrs [2]: > 1 µg/mL
EC50 of killing, HCC15 NSCLC cells, CellTiter Glo, 96 hrs [2]: > 1 µg/mL
EC50 of killing, HCC44 NSCLC cells, CellTiter Glo, 96 hrs [2]: > 1 µg/mL
EC50 of killing, HCC78 NSCLC cells, CellTiter Glo, 96 hrs [2]: > 1 µg/mL
EC50 of killing, HCC827 NSCLC cells, CellTiter Glo, 96 hrs [2]: > 1 µg/mL
EC50 of killing, PC3 prostate cancer cells, CellTiter Glo, 96 hrs [2]: 0.1 µg/mL

B5: 50D6 (antibody, V domains shown)
VH: EVQVLESGGGLVQPGGSLRLSCAASGFTFSNYAMNWVRQAPGKGLEWVSAISGGGGSTYYADSVKGRATISRDNSENTLYLQMNSLRAEDTAVYYCAKTSSGWYDSYYDYYGLDVWGQGTTVTVSS
VL: B4 VL with S31N, A43V, A51V, G56S, H90Q, R93S, F94Y, R96F, Q100G, V104L
Kd (Cynomolgus monkey CDCP1): < 1 nM
Kd [1]: < 1 nM

B6: 3B11 (antibody, human IgG1, V domains shown)
VH: QVQLQQWDAGLLKPSETLSLTCAVYGGSFSSYYWSWIRQPPGKGLEWIGEINHSGSTSYNPSLKSRVTISIDTSKNQFSLKLNSMTAADTAVYFCAASPYFDYWGQGTLVTVSS
VL: B4 VL with G56S, H90Q, R93S, F94Y
notes: also called 03B11; 3B111
Kd (Cynomolgus monkey CDCP1): > 500 nM
Kd [1]: 60 nM

B7: 38E11 (antibody, human IgG1, V domains shown)
VH: B4 VH
VL: B4 VL
notes: also called human antibody 38E11
Kd (Cynomolgus monkey CDCP1): 4 nM
Kd [1]: 2 nM

B8: 38E11-PBD (other)
VH: B4 VH
VL: B4 VL
modifications: MA-PEG8-VA-PAB-SG3199 (PBD) on hinge region cysteine thiols, positions not given; DAR 2.3
EC50 of killing, Cal-12T NSCLC cells, CellTiter Glo, 96 hrs [2]: > 1 µg/mL
EC50 of killing, DU145 prostate cancer cells, CellTiter Glo, 96 hrs [2]: 0.1 µg/mL
EC50 of killing, H460 NSCLC cells, CellTiter Glo, 96 hrs [2]: ~0.1 µg/mL
EC50 of killing, H1299 NSCLC cells, CellTiter Glo, 96 hrs [2]: > 1 µg/mL
EC50 of killing, H1650 NSCLC cells, CellTiter Glo, 96 hrs [2]: ~1 µg/mL
EC50 of killing, HCC44 NSCLC cells, CellTiter Glo, 96 hrs [2]: ~1 µg/mL
EC50 of killing, HCC827 NSCLC cells, CellTiter Glo, 96 hrs [2]: > 1 µg/mL
EC50 of killing, LNCAP prostate cancer cells, CellTiter Glo, 96 hrs [2]: 0.01 µg/mL
EC50 of killing, PC3 prostate cancer cells, CellTiter Glo, 96 hrs [2]: 1 µg/mL

B9: 03B05 (antibody, V domains shown)
VH: QVQLVESGGGVVQPGRSLRLSCAASGFTFSSYGMHWVRQAPGKGLEWVAIIWYDGSNKYYADSVKGRFTISRDNSKNTLYLQMNSLRAEDTAVYYCAKDPSYSSGYYLFDFWGQGTLVTVSS
VL: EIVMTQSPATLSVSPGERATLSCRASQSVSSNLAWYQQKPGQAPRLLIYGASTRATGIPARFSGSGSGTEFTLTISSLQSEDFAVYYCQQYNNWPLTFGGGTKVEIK
notes: also called 3B5
Kd (Cynomolgus monkey CDCP1): 75 nM
Kd [1]: 17 nM

B10: 05A8 (antibody, V domains shown)
VH: EVQLLESGGGLVQPGGSLRLSCAASGFTFSNYAMSWVRQAPGKGLEWVSAISGRGGSTYYADSVKGRFTISRDNSKNTLYLQMNSLRAEDTAVYYCAKDIVVVPAAKGYVMDAWGQGASVTVSS
VL: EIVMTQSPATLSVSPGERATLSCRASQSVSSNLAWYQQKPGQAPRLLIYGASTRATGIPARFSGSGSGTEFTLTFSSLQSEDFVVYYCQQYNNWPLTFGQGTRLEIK
Kd (Cynomolgus monkey CDCP1): 18 nM
Kd [1]: 7 nM

B11: 27H10 (antibody, human IgG1, V domains shown)
VH: QVQLVQSGAEVKKPGSSVKVSCKASGGTFSSYAMSWVRQAPGQGLEWMGGIIPILGTTNYAQKFQGRVTITADKSTSTAYMELSSLRSEDTAVYYCAREGLYAFDIWGQGTMVTVSS
VL: DIQMTQSPSSLSASVGDRVTITCRASQSISSYLNWYQQKPGKAPKFLIYVASSLQSGVPSRFSGRGSGTDFTLTISSLQPEDFATYYCQQSYSTPWTFGQGTKVEIK
notes: also called human antibody 27H10
Kd (Cynomolgus monkey CDCP1): 45 nM
Kd [1]: 45 nM

B12: 42C5 (antibody, V domains shown)
VH: EVQLVESGGGLVQPGGSLRLSCAASGFTFSRYWMNWVRQAPGKGLEWVANIKQDGSEKDYVDSVKGRFTISRDNAKNSLFLQMSSLRAEDTAVYYCARVMYSSGWSFDYWGQGTLVTVSS
VL: DIVMTQSPLSLPVTPGEPASISCRSSRSLLHSSGYNFLDWFLQKPGQSPQLLIFLGSDRASGVPDRFSGSGSGTDFTLKISRVETEDVGVYYCMQALQTPITFGQGTRLEIK
Kd (Cynomolgus monkey CDCP1): 12 nM
Kd [1]: 2 nM

B13: 47G7 (antibody, human IgG1, V domains shown)
VH: B12 VH with R31S, N35S, F80Y, S84N, A88V, V99E, M100G, Y101G, S106T
VL: B12 VL with R27Q, Y35H, F41Y, F54Y, D58N, T85A, I101P, R108K
notes: also called human antibody 47G7
Kd (Cynomolgus monkey CDCP1): 500 nM
Kd [1]: 35 nM

B14: 18C6 (antibody, human IgG1, V domains shown)
VH: QVQLQESGPGQVKPSETLSLTCTVSGGSISSSFWSWIRQPPGKGLEWIGYIYYSESTNYNPSLKRRVTLSVDTSKNQFSLKLTSVTTADTAVYYCARNIGVAGLFDYWGQGTLVTVSS
VL: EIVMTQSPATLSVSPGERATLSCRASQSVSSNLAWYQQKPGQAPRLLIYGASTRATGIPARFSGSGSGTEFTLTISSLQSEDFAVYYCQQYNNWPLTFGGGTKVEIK
notes: also called 18C06; human antibody 18C6
Kd (Cynomolgus monkey CDCP1): 190 nM
Kd [1]: 25 nM

B15: 12C2 (antibody, V domains shown)
VH: QEQLVESGGGVVQPGRSLRLSCVTSGFTFSSYGMHWVRQAPGKGLEWVAVIWYDGTNKYYADTVKGRFTISRDNSKNTLYLQMNSLRAEDTGVYYCAREGCDTISCPYYYYGMDVWGQGTTITVSS
VL: DILMTQSPSSLSASVGDRVTITCRASQGINYYLAWYQQKPGKVPKLLIYTASTLQSGVPSRFSGSGSGTDFTLTISSLQPEDVATYFCQKYNSAPFTFGPGTKLEIK
Kd (Cynomolgus monkey CDCP1): 8 nM
Kd [1]: 1 nM

B16: 03C05 (antibody, V domains shown)
VH: EVQVLESGGGLVQPGGSLRLSCAASGFTFSSYVMSWVRQAPGKGLEWVSGISGSGGSTHYADSVKGRFTISRDNSKNTLYLQMNSLRAEDTALYYCAQQWPQGYWGQGTLVTVSS
VL: B15 VL with L3Q, G28D, N30S, Y31I, Y36F, L46V, T50A, S67T
notes: also called 3C5
Kd (Cynomolgus monkey CDCP1): 80 nM
Kd [1]: 20 nM

B17: 14H4 (antibody, V domains shown)
VH: EVQLLESGGDLVQPGGSLRLSCAASGFTFNSYAMSWVRQAPGKGLEWVSVLSGSGGDIHYADSVKGRFTVSRDNSKNMLYLQMNSLRAEDTAVYFCAQQWPQGYWGQGTLVTVSS
VL: B15 VL with L3Q, N30S, Y31I, Y36F, T50A, F87Y, L104V
Kd (Cynomolgus monkey CDCP1): 5 nM
Kd [1]: < 1 nM

B18: 10E2 (antibody, V domains shown)
VH: QVQLVESGGGVVQPGRSLRLSCAASGFTFSSYGMHWVRQAPGKGLEWVAVVWYDGTIKYYADSVKGRFTISRDNPKNTLYLQMNSLRAEDTAVYYCASQYSSGWHTDFFDVWGQGTMVTVSS
VL: DIQMTQSPSTLSASVGDRVTITCRASQSISTWLAWYQQKPGKAPKFLIYKASSLESGVPSRFSGSGSGTEFTLTISSLQPDDFATYYCQQYSGYSLTFGGGTKVEIK
notes: also called human antibody 10E2
Kd (Cynomolgus monkey CDCP1): 1 nM
Kd [1]: < 1 nM

B19: 02F3 (antibody, V domains shown)
VH: QVQLVESGGGVVQPGRSLRLSCAASGFSFSDYGIHWVRQAPGKGLEWVAVIWYDGSNKYYADSVKGRFTISRDNSKNTLYLQVNSLIAEDTAVYYCARDRGYSSGWYVDYYYYGMDVWGQGTTVTVSS
VL: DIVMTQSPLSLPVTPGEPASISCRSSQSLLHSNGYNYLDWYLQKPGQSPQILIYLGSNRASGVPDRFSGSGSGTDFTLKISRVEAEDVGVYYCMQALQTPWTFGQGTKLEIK
Kd (Cynomolgus monkey CDCP1): 83 nM
Kd [1]: 8 nM

Source: US20240084032A1 (BLUEFIN BIOMEDICINE, published 2024)
